# Assay results published in the RNAGym collection of RNA variant scans (doi:10.1073/pnas.2313332121).
# B1: TPR t1 (parent)
# chain: GACCAAUCUGCCCUCAGAGCUCGAGAACAUCUUCGGAUGCAGAGGAGGCAGGCUUCGGUGGCGCGAUAGCGCCAACGUCCUCAACCUCCAAUGCAUCCCACCACAUGAUGAUGCCUGAAGAGCCUUGGUUUUUUG
# Variants of: B1
# Experiment: polymerase ribozyme fitness, log enrichment relative to wild type (log ratio); higher = more active; in vitro selection for triplet polymerase activity
# Summary of the method: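 To select mutant libraries of each subunit of a heterodimeric triplet polymerase ribozyme, built by PCR and transcribed, each was annealed with a biotinylated primer, partner subunit and triplets, then incubated frozen at −7 °C. Extended constructs were gel-excised, captured on streptavidin beads and amplified by RT-PCR, in one round carried out in triplicate. Illumina sequencing of input and output libraries kept genotypes with ≥10 input reads and ≥1 read per output. Fitness is the base-2 logarithm of genotype enrichment relative to wild-type enrichment, from inverse-variance-weighted replicate averages.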
row,Variant,polymerase ribozyme fitness (log ratio)
1,U7A C40U U54A C56A C73A G77U G117A G122A,-3.15
2,A5G U81A,-0.807
3,A6U C72G U78G U130C,-0.0449
4,U32G A50G G69U C88G A121C,-3.17
5,A103U A118U,-4.32
6,U9A A27G C72U C114U,-1.39
7,G61C C79G C86U,-1.95
8,C40U G61C,-2.59
9,G60A C72G U92C G93A,-4.92
10,U109A C114U A121C,-4.32
11,U14C U21A G61A G117C,-3.39
12,C15U G61C C104A C124U,-3.58
13,G36A G42U C53U U55G C86U G110U,-6.5
14,G47U G51A G61U C79G G93A G113C C114G,-6.6
15,C11A G63C,-1.78
16,C56A C98A,-5.59
17,G44U G47U,-2.16
18,G10U G48U G63A C85U C86G,-3.3
19,A41G U81A G117U,-5.27
20,C13G G45C C53U G63U C88A,-3.62
21,A43U C76A C85G G120A U130C,-1.34
22,C40G G71A U78G,-2.94
23,C12G C70A A75U U112A G113U G120C U133G,-2.57
24,C4U C49U C97U G128U,-2.93

row,Variant,polymerase ribozyme fitness (log ratio)
1,C28G U33A C53A C114U G128U U133A,-7.29
2,A29G C97A U112C,-4.92
3,G61U C123G,1.2
4,G35A C56A C123G G128C,-5.64
5,G48U C49G U96A,-1.45
6,C70U U92A,-4.11
7,U9G G17C A26G,-3.96
8,G58C A111G G120A,-1.36
9,C8G A16C G61C G71A G120C,-6.1
10,U87C U106A G128C,-1.61
11,G61A U78G,-0.87
12,C94G C114U,-3.17
13,G10C A16U,-1.98
14,C4U C15U C72G C99U G120A,-4.79
15,U92G G110A,-5.46
16,C13U C49A G71C G127C,-1.9
17,U55G C56A U106A,-1.04
18,G25C C28A G48U G71U C73G G113U,-6.43
19,C94A U112G,-1.48
20,A5G A50C,-0.262
21,G35U G39A C80G C97U C114A,-6.51
22,C56U G120U C124A,1.41
23,C20U G45U A100U,-3.67
24,A74C C124U,1.08

row,Variant,polymerase ribozyme fitness (log ratio)
1,C4G U112G,-0.359
2,C12U G47A U87C,-0.382
3,C62U U81C C94U U96C C114A,-2.82
4,A6C C40A C70G,-5.35
5,C11G C114U,-0.754
6,G39U U78C A121U,1.16
7,C8A A37U C86U,-0.337
8,C86G C98U,-1.59
9,A43U G48U U54C C89U U112A,-0.663
10,G36U U38A G48U G61U G63A C97U C115U,-5.64
11,C13G A18U A27G C53U C70U C89A C104U,-5.81
12,C34A U59C G127C,-4.66
13,C22G A43U A46G U59A G120C,-4.94
14,C20G G42U G113C,-3.64
15,C12A C13U G39U,-0.844
16,G17U G44U C49G,-5.1
17,U96C U133A,-0.456
18,C11A C53G,-1.8
19,C22U G63U,-4.76
20,C15G U32C G36C C49G G120C,-3.15
21,G36A U55G U87A,-1.87
22,G61U G63U,-4.98
23,A46G C49A C56A A66C,-2.64
24,A18U C73U U96G C104U,-2.93

row,Variant,polymerase ribozyme fitness (log ratio)
1,G10C G117A,-1.75
2,A18C G48U C56U A84G,-4.19
3,G61U C62U,-3.5
4,A6U C12U C76A C115U,-2.81
5,G52U C72U A121C,0.242
6,C62A A75G G93A,-2.34
7,C22A C34U G36U G61C A111U,-6.58
8,A95U U109G G120C,-5.29
9,G10A C88A C123U,1.69
10,U7A C49U,0.388
11,A43U C114G,-3.27
12,A18U C62U C64U A74C A90U A121C U129A,-6.59
13,C22U,-3.85
14,C22A,-4.89
15,A68G G110C,-5.66
16,G42U C82U,-1.44
17,C79G A90C U112A,-3.88
18,G44C G77A,-0.814
19,G23A G113C,-5.19
20,A91U U116G G120C G128U,-4.65
21,U7G C31U G60A,-4.97
22,U9A G44C U55C U109G,-4.29
23,A41U C101U,-1.85
24,G10U C13U U38G C123A,1.31

row,Variant,polymerase ribozyme fitness (log ratio)
1,C62U C85U U87A U92C C114U G117A,-6.6
2,C11A G47A G77C A84G G128A,-4.94
3,G35A C53G C104U G117U C124G U126G,-5.98
4,C85A G110A,-2.98
5,C72A U78G U133A,0.102
6,G51A U54G C72G C80A C82G,-4.89
7,A29C G48A A50C,-3.87
8,A2C C114U,-3.24
9,C13U C22U C86U,-4.45
10,G48C C101U U109G,-5.98
11,A84U C94G,-1.24
12,C11U A75G,-0.146
13,C15A G69A C104U,-4.06
14,G10U C40A G77A G128U,-3.6
15,A50U G60C,-1.06
16,C4U U38G C49A C53U C73U,-2.53
17,G44A G57U C85U C104A U109A G120C,-4.62
18,C73U C80G A118U,-4.47
19,C3G G63C,-2.64
20,C20G A46U C62U C114U,-3.55
21,C40G U78A,-0.582
22,C3A C64G C76U G110C,-6.8
23,G61A A74U C101G G120C,-2.7
24,G39U G58C G71A G110C,-6.06

row,Variant,polymerase ribozyme fitness (log ratio)
1,C34U C64U G93A A105C C114U,-5.2
2,C79U U96G,-0.798
3,A50U C62G,-3.56
4,C13U G77A,0.00416
5,U7G A74U A118U,0.595
6,A6U G10A C15U A46C C53G G61U C79A C80U C115G A119G,-4.07
7,G48A G63U C88U,-1.66
8,G71U A75G,-0.135
9,C115U G128C,-3.16
10,C8A C15G C40A U54G A90G,-2.34
11,U54G C82A G120U,-0.425
12,A27U C80A,-5.56
13,U7A C72U,-0.218
14,A27U C76A C79A,-4.71
15,C72G C85U,-1.45
16,A29C C64A U109G G113A,-6.15
17,C73A U87C A105U,-1.35
18,G58U C99U G117C U131C,-5.92
19,C8U G44A C101U U116C,-1.58
20,A6G C13U C72U C102U G122A,-2.6
21,A18U C72U,-2.03
22,C20U C56U,-1.64
23,A5G U106A,0.687
24,C15A G42A C56A G69U A100C U132A,-4.53

row,Variant,polymerase ribozyme fitness (log ratio)
1,U32C G48U C56A G71U,-3.98
2,G47C C85G,-2.21
3,C11A C22A C56G U78A U112A U131A,-2.4
4,G63A G128C,-3.34
5,C115U G117C,-3.48
6,A68G C94A,-5.05
7,A43U G47U A74U,-2.98
8,C4A A74G,-1.14
9,A5G G17U A18G A100C A121G C124G,-3.51
10,G58A U109A,-4.85
11,C40G C114U,-2.54
12,A16U C70A U116C U130G,-2.69
13,C15U C85A C124U G128C U133G,-4.88
14,C56U G110A,-0.719
15,C12G G135U,-0.927
16,A6G C12U U30C A108G,0.259
17,G69C C72U U92C C101U G117U,-5.11
18,C76A A83C,-0.201
19,A27U G36U G60U,-4.13
20,C34U A41G C53U,-4.95
21,C22G C98U,-4.52
22,C4U A37G,-0.871
23,A6U A24C C28A G47U G65C C102G G107A G120A G127U,-6.59
